Measured values: the nanobody polyreactivity screen of Harvey et al. (2022)

Assay: yeast display, Sf9 membrane polyspecificity reagent, FACS + sequencing; frameworks hold sequencing errors
How it was run: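 In a synthetic yeast display library (Saccharomyces cerevisiae BJ5465), nanobody expression was induced with galactose for 36–48 hours. FACS gates were set low and high (top ~1%) using anti-HA fluorescence for expression and streptavidin fluorescence for binding of the Sf9 membrane reagent. Each polyreactivity label is drawn from the gate of origin.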

Sequence	polyreactivity (PSR sort gate)
QVQLQESGGGLVHAGGSLRLSCAASGTISFINMMGWYRQAPGRERELVASINFGANTNYADSVKGRFTISRDNAKNTVYLQMNSLKPEYTAVYYCAVYDFDAYSLYYWGQGTLVTVSS	high polyreactivity
QVQLVESVGGLFQAGRSLRLSGAASGTTFVWNAMGWYRPAPGKERELVATITLSTGSTYYADSVKGRFTISRDNAKNSVYLQMNSLKPEDTAVYYGNTEIYVDIISDYGYWGQGTQVTVSS	low polyreactivity
KVQLVESGGGLVQAGGSLRLSCAASGFTFLRYAMGGYRQAPGKERELVAAIRFSGGSTYYADSVKGRFTISRDNAKNNVYLQMNSLKPEDTAVYYCAAYIRSYGYDYWGQGTKVTVSS	high polyreactivity
QVQLVESGGGLGQAGGSLRLSCAASGLIFNIYARGWYSQAPGKDRELVATIRYSGGSTNYADSVKGRVTISRDNAKNTVNLQMKSLNPEDTAVYYCNAGYYPTGYDYWGQGTQVTVSS	low polyreactivity
QVQLVESGGGLVQAGGSLRLSCAASGSTSPINAMRWYRQAPGKERELVAVISSSGGRTYYADSVKGRFTISRDNAKNTVYLQMNSLKPEDTAVYYFDKRFSRRQPDYDYWGQGTQVTVSS	high polyreactivity
QVQLVESGGGLDQAGGSLGLSCAPSGRTFFPYAMGWSRQAPGKEREFVAAITKTDDSTYYADSVKGRFTISRDKAKNTVYLPMNSLKPEDTAVYYCIAGDTQIRFYYWGQGTQVTVSS	low polyreactivity
QVQLVESGGGLVQAGGSLRLSCAASGRIFGAYAMGWYRQAPGKERELVAAITSGGSTYADSVKGRFTISRDNAKNTVYLQMNSLKPEDTAVYYCAADLITRSDSWWTGWIWEYDYWGQGTQVTVSS	low polyreactivity
QVQLVESGGGLVQAGGSLRLSCAASGRIFGTNAMGWYRQAPGKERELVATITRGGGNTYYADSVKGRFTISRDNAKNTVYLQMNSLKPEDTAVYYCAAYDSVQKYWILGFDYWGQGTQVTVSS	low polyreactivity
QVQLVESGGGLVQAGGSLRLSCAASGSIFEGYVMGWYRQAPGKERELVAAITTGGGSTYYADSVKGRFTISRDNAKKTVYLQMNSLKPEDTAVYYCAKDYWFGYEYWGQGTQVTVSS	low polyreactivity
QVQLVESGGGLVQAGGSLRLSCAASGSIFRWNAMGWYRQAPGKEREFVAAISGRGGSTYYADSVKGRFTISRDNAKNTVYLQMNSLKPEDTAVYYCAADQAHLATRGFDYWGQGTQVTVSS	high polyreactivity
QVQLQESGGGLVQAGGSLRLSSAASGNFFDADIIGRYRQAPGKERELVASITDGGSTNYADSVKGRFTISRDDTRNTVHLQMNSLYPEDTAVYYCAAIAYPDIPTYFDYDSDYSYWGQGTQVTVSS	high polyreactivity
QVQLVESGGGLVQAGGSLRLSCAASGSTFVPYAIGWYRQAPGTERELVAAISSRGGRTSYADSVKGRFTISRDNAKNTVYLQMKRLKPEDTAVYYCIALYPGRLTDYSRSKMEYWGQGTQVTVSS	high polyreactivity
QVQLVESGGGLVQAGGSLRLSCAASGRIFARNAMGWYRQAPGKERELVAAISSSGGTYYADSVKGRFTISRDNAKNTVYLQMNSLKPEDTAVYYCNARVRTQQRWVDYWGQGTQVTVSS	high polyreactivity
QVQLVESGGGLVQAGGSLRLSCAASGGIITYYDMGWYSQAPGKDREFVAAINVSGTRTYYADSVKGRFTISRDNAKNTVYLEMNSLKPEDTAVYYGATRYRVGFFSWYDYWGQGTQVTVSS	high polyreactivity
QVQLVESGGGLVQAGGSLRLSCAASGSIFQRNAMGWYRQAPGKERELVASISFSDGTTYYADSVKGRCTISRDNAKNTVYLQMNSLKPEDTAVYYCAKKAIVSDQWDKYDYWGQGTQVTVSS	low polyreactivity
QDQLVESGGGLVRAGGSLRLSCAASGSIFVVNAMGLYRQAPGKERELVADINSGGSTNFADSVKGRFTISRDNAKNTVYLQMNSLKPEDTAVYYCAKSAVTGTYDYWGQGTLVTVSS	low polyreactivity

Sequence	polyreactivity (PSR sort gate)
QVQLVESGGGLVQAGGSLRLSCAASGSIFLPYAMGWSRQAPGTEREFVAAIRWSTGRTFYADSVKGRFTISRDNAKNTVYLQMNSLKPEDTAVYYCAAKYYDSWYTYRYDYWGQGTQVTVSS	high polyreactivity
QVQLVESGGGLVQAGGILRLSCAASGRIFSSYSMGWYRQAPGKESELVAAISRSGARTYYADSVKGRFTISRDYAKNTVYLQMNSLKPEDTAVYYCAAVTVAGYDYWGQGTQVTVSS	high polyreactivity
QVHLVESGGGLVQAGGSLRLSCAASGFTFYQYAMGWYRQAPGKERELVAAITASGGSTYYADSVKRRFTISRDNAKNTVYLQMNSLKPEDTAVYYCAAERYFVLYRYYSYAYYYWGQGTQVTVSS	high polyreactivity
QVQLVESGGGLVQAGGSLRLSCAASGLIFLDYAMGWYRQAPGKERELVAAISRSGGRTYYADSVKGRFTISGDNAKNTVYLQMNSLKPEDTAVYYCAADGSRKSEIYDYWGQGTQVTVSS	high polyreactivity
QVHLVESGGGLVQAGGSLRLSCAASGRTFYTYAMGWYRQATGKERELVAVIRRDGSTSYADSVKGRFTISRDNAKNTVFLQKNSLKPEDTAVYYCAVTRRGEYYWGQGTQVTVSS	high polyreactivity
QVQLVESGGGLVQAGGSLRLSCAASGSTFATYAMGWYRPAPGKERELVAAITRGGRTNYADSVKGRFTISRDNAKNTVYLQMNSLKPEDTSVYYCAADYIYGYFWRFGYWGQGTQVTVSS	low polyreactivity
QVQLVESGGGLVQAGGSLRLSCAASGRTYSRNAMGWYRQAPGKERELVATISRGGGITFYADSVKGRFTISRDNAKNTVYLQMNSLKPEDTAVYYCAAQYYYWTRRPGDYWGQGTQVTVSS	high polyreactivity
QVQLVESGGGLVQAGCSLRLSCAASGLTLRHYAMGWYRQSPGKERELVAAISWNTGSTYYADSVKGRFTISRDNAKNTVYLQMNSLKPEDTAVYYCAAVPRAYYQGLYYWGQCTQVTVSS	high polyreactivity
QVQLVESGGGLVQAGGSLRLSCAASGSTFGSYGMGWYRQAPGKEREVVAVITYSGDRTYYADSVKGRFTISRDNAKNTVYLQMNSLKPEDTAVYYCAADRSYRVSEYDYWGQGTQVTVSS	low polyreactivity
QFQLVESGGGLVQAGGSLRLSCAASGRIFNGNAMGLYRQAPGKERELVAASTSDGSTYADSVKGRFTISRDNAKNTVYLQMNSLKPEDTAVYYCNRDGYTNSRGYEFYYWGQGTQVTVSS	low polyreactivity
QVQLVESGGGLVQAGGSLRLSCAASGSIFLYNAMGWYRQAPGKERELVAAIRGSDGITFYADSVKGRFTISRDNAKNTVYLQMNSLKPEDTAVYYCAKDTYRSPRHDYGYWGQGTQVTVSS	low polyreactivity
QVQLVESGGGLVQAGGSLRLSCAASGSTFRSYAMGWYRQAPGKERELVAAISVSGGSTYYADSVKGRFTISRDNAKNTVYLQMNSLKPEDTAVYYCAASYVPSYAPGRYYYWGQGTQVTVSS	high polyreactivity
QVQLVESGGGLVQAGGSLRLSCAASGSIFSRNAMGWYRQAPGKEREFVARISWSSTSTNYADSVKGRFTISRDNAKNPVYLQMNSLKPEDTAVYYCAADFRGDRRFDYWGQGTQVTVSS	low polyreactivity
QVQLVESGGGLVQAGGSLRLSCAASGFTLKYNTMGWYRPAPGKERELVAAISRIGGRTYYADSVKGRFTISRDYAKNTVYLHKNSLKPEDTAVYYCAAVYRVCWRTYGYWGQGTQVTVSS	high polyreactivity
QVQLVESGGGLVQAGGSLRLSCAASGSTFSRNAMGWSRQAPGKERELVAAISYRGGSTYYADSVKGRFTISRDNAKNTVYLQMNSLKPEDTAVYYCNADVGWRAPDYGGYDYWGQGTQVTVSS	high polyreactivity
QVQLVESGGGLVQAGGSLRLSCAASGLTFRYYAMGWYRQAPGKERELVAAITRRGSTYYADSVKGRFTISRDNAKNSVYLQMNSLKPEDTAVYYGATVTGFHSSPLRDLDYWGQGTQVTVSS	high polyreactivity
